In patent publication US20210403541A1:

Target: PD17(p)PS413 (24AWF) (human)
Test: peptide-coated ELISA (1 µg/ml peptide 24AWF coat, anti-human IgG-HRP, ABTS, OD405)

- EC50 (read off the curve): 0.05 µg/mL
B1: V5-AFM-hIgG4-S228P (antibody, V domains shown)
VH: EVQLVESGGGLVQPGGSLRLSCAASGFTFSSFALNWVRQAPGKGLEWVGHIRSKTNNYVTFYAASVKGRFTVSRDDSQNTAYLQMNSLKTEDTATYYCVRRGPRDSWFGYWGQGTLVTVSS
VL: DIVMTQSPLSLPVTLGEPASISCRSSQKIVHRNANTYLEWYLQKPGQSPQLLIYTVSNRFSGVPDRFSGSGSGTDFTLKISRVEAEDLGVYYCFQGSYLPLTFGGGTKVEIK
